Data taken from publication PMC4432389, “Cytosolic Hsp70 and co-chaperones constitute a novel system for tRNA import into the nucleus” (eLife, 2015).

Key:
[1] = molecular target: T1, Ssa1p (S. cerevisiae, UniProt P10591 1-642); test: pull-down; 200 pmol GST or GST-nucleoporin fusion and 40 pmol Ssa1p or Ssa2p incubated with Glutathione Sepharose in Buffer 88 (20 mM HEPES-KOH pH 6.8, 2 mM Mg(OAc)2, 150 mM KOAc) with 0.10% wt/vol Tween-20, 4°C, 2 hr; eluted with 10 mM reduced glutathione; Ssa proteins detected by Western blotting with anti-Ssa protein antibodies; details: both partners purified
T1 construct: Ssa1p, cytosolic Hsp70 of S. cerevisiae, full length (residues 1-642 by the domain constructs); Expressed from a pCold2 vector with a C-terminal His6 tag; also called Ssa1p-His6; Ssa proteins; source: E. coli BL21(DE3) co-expressing trigger factor, purified (Ni-NTA agarose)

[2] = molecular target: T2, Ssa2p (S. cerevisiae, UniProt P10592 1-639); test: as above; details: both partners purified
T2 construct: Ssa2p, major cytosolic Hsp70 of S. cerevisiae, full length (residues 1-639 by the domain constructs); Expressed from a pCold2 vector with a C-terminal His6 tag; also called Ssa2p-His6; Ssa proteins; source: E. coli BL21(DE3) co-expressing trigger factor, purified (Ni-NTA agarose)
T2 sequence (P10592 whole entry, the tested form may be a part): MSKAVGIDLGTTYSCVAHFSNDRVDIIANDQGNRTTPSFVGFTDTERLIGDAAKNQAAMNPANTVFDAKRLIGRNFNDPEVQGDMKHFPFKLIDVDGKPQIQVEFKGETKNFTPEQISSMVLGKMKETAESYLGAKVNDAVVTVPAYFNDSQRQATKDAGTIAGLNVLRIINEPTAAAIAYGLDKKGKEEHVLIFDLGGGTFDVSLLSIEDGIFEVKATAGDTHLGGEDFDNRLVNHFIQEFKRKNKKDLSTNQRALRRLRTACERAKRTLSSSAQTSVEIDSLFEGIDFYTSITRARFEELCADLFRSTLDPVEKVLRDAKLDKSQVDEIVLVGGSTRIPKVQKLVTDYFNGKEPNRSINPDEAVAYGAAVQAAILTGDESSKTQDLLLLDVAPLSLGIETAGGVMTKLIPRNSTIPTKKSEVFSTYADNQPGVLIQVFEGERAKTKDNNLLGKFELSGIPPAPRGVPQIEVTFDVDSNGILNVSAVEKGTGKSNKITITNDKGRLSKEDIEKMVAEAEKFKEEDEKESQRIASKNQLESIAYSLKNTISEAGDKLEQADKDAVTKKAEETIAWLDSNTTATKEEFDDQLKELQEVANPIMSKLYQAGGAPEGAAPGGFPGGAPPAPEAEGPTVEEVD

T1 sequence (P10591 whole entry, the tested form may be a part): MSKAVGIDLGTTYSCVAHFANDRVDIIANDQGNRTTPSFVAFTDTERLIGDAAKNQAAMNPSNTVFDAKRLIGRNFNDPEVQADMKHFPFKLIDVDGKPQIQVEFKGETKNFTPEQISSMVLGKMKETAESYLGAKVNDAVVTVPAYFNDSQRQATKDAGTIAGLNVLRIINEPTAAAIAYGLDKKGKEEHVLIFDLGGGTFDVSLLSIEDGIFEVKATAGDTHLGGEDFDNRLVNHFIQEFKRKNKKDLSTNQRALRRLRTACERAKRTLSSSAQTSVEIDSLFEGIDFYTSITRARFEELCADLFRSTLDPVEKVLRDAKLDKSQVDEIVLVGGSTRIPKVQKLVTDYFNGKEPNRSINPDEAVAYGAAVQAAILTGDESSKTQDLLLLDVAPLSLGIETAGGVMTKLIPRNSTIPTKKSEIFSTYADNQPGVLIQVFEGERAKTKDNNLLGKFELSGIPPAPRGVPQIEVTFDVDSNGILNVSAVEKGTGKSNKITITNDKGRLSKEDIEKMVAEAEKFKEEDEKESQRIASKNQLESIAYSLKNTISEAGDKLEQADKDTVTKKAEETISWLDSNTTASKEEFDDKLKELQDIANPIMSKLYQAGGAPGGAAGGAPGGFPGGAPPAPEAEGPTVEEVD

B1: GST-Nup116(165–715)p (domain or fragment, S. cerevisiae, UniProt Q02630 165-715, looked up)
chain: RKFGTSQNGTGTTFNNPQGTTNTGFGIMGNNNSTTSATTGGLFGQKPATGMFGTGTGSGGGFGSGATNSTGLFGSSTNLSGNSAFGANKPATSGGLFGNTTNNPTNGTNNTGLFGQQNSNTNGGLFGQQQNSFGANNVSNGGAFGQVNRGAFPQQQTQQGSGGIFGQSNANANGGAFGQQQGTGALFGAKPASGGLFGQSAGSKAFGMNTNPTGTTGGLFGQTNQQQSGGGLFGQQQNSNAGGLFGQNNQSQNQSGLFGQQNSSNAFGQPQQQGGLFGSKPAGGLFGQQQGASTFASGNAQNNSIFGQNNQQQQSTGGLFGQQNNQSQSQPGGLFGQTNQNNNQPFGQNGLQQPQQNNSLFGAKPTGFGNTSLFSNSTTNQSNGISGNNLQQQSGGLFQNKQQPASGGLFGSKPSNTVGGGLFGNNQVANQNNPASTSGGLFGSKPATGSLFGGTNSTAPNASSGGIFGSNNASNTAATTNSTGLFGNKPVGAGASTSAGGLFGNNNNSSLNNSNGSTGLFGSNNTSQSTNAGGLFQNNTSTNTSGGGLFS
notes: Cloned into pGEX-4T-2; also called Nup116p; source: DH5α, purified (Glutathione Sepharose, NAP-10 desalting)
B1: binds [1]; binds [2].
